{
  "source": "paper PMC9038691",
  "about": "“A structural exposé of noncanonical molecular reactivity within the protein tyrosine phosphatase WPD loop” (Nature communications, 2022)",
  "proteins": {"B1": {"name": "AtPFA-DSP1 (full-length) (Arabidopsis thaliana) (protein)", "chain": "MKLVEKTTTTEQDNGEDFCRTIIEVSEVNRNVFQAPGGEADPFRVVSGEELHLIPPLNFSMVDNGIFRSGFPDSANFSFLQTLGLRSIIYLCPEPYPESNLQFLKSNGIRLFQFGIEGNKEPFVNIPDHKIRMALKVLLDEKNHPVLIHCKRGKHRTGCLVGCLRKLQKWCLTSIFDEYQRFAAAKARVSDQRFMEIFDVSSFSHIPMSFSCSIR", "notes": "full-length (codon-optimized cDNA, Genscript); pDest-566, N-terminal 6xHis-MBP tag cut with TEV protease; E. coli"}},
  "assay_in_all_cases": "malachite green Pi release",
  "assay_type_in_all_cases": "biochemical, Arabidopsis thaliana",
  "conditions_in_all_cases": "pH 7.2, 30 °C, 100 mM KCl, 0.8 mM MgCl2",
  "key": {"[1]": {"substrate": "O=P(O)(O)O[C@H]1[C@@H](OP(=O)(O)O)[C@H](OP(=O)(O)O)[C@@H](OP(=O)(O)OP(=O)(O)O)[C@H](OP(=O)(O)O)[C@H]1OP(=O)(O)O"}, "[2]": {"substrate": "O=P(O)(O)O[C@@H]1[C@@H](OP(=O)(O)OP(=O)(O)O)[C@H](OP(=O)(O)O)[C@@H](OP(=O)(O)O)[C@@H](O)[C@H]1OP(=O)(O)O"}, "[3]": {"substrate": "O=P(O)(O)O[C@@H]1[C@@H](OP(=O)(O)O)[C@H](OP(=O)(O)OP(=O)(O)O)[C@@H](OP(=O)(O)O)[C@H](OP(=O)(O)OP(=O)(O)O)[C@@H]1OP(=O)(O)O"}},
  "data": [
    {"protein": "B1", "values": [
      {"measurement": "Km", "setting": "[1]", "result": 60, "unit": "µM"},
      {"measurement": "Km", "setting": "[2]", "result": 78, "unit": "µM"},
      {"measurement": "Km", "setting": "[3]", "result": 44, "unit": "µM"}
    ]}
  ]
}
